The results in this text go back to article PMC8113403, “Assembly of Natively Synthesized Dual Chromophores Into Functional Actinorhodopsin” (Frontiers in Microbiology, 2021).

The data set deals with Asp85. The experiment in a line: UV-vis. To be noted: not stated (0.02% DDM solution; pH adjusted with small amounts of HCl or NaOH); Purified, detergent-solubilised holoprotein with all-trans-retinal; no carotenoid; light adaptation not stated.

With “Actinorhodopsin ActR-13023 (Candidatus Aquiluna sp. IMCC13023)”, the pKa entry is given as “≈ 7.81”.

“Actinorhodopsin ActR-13023 E96Q (Candidatus Aquiluna sp. IMCC13023; E96Q)” yielded a pKa of 7.67.

A word on the pKa: it is the negative logarithm of the acid dissociation constant.
